Measurements reported in patent publication US6582902B1, “Method for deriving epitopes” (priority 1992, dated 2003).

Legend:
anti-g10 serum [1] = assay: Selection of RNA from degenerate pool by immunoprecipitation with anti-g10 serum; format: binding, rabbit; conditions: three cycles, high stringency washing (0.5 M urea)
Excerpt: Whereas the g10 peptide is a useful epitope tag for analyzing complexes containing protein, an RNA epitope tag would be equally useful for studying complexes containing RNA. The anti-g10 serum was presented with a degenerate pool of RNA containing 1,048,576 unique species, assuming incorporation of four different nucleotides at 10 randomized loop positions (FIG. 2). These RNAs were transcribed from approximately 1×10^11 molecules of degenerate oligodeoxynucleotide template (D. Tsai et al., Nucl. Acids Res. 19, 4931-4936 (1991)). Assuming that most templates are transcribed at least once, all possible RNA species should be redundantly represented. RNA was prepared by in vitro transcription of PCR-generated templates in accordance with known techniques (D. Tsai et al., Nucl. Acids Res. 19, 4931-4936 (1991)). The transcripts were immunoprecipitated with the anti-g10 serum as follows: Protein A Sepharose beads (Sigma, 4 mg per […]) were washed in NT2 buffer (50 mM Tris [pH 7.4], 150 mM NaCl, 0.05% Nonidet P-40) (C. Query et al., Cell 57, 89-101 (1989)), mixed with […] of anti-g10 serum, incubated on ice for 10 min, and washed in NT2. […]

anti-g10 serum [2] = assay: Immunoprecipitation of [32P]-labeled in vitro transcribed RNA with anti-g10 serum; format: binding, rabbit; conditions: FIG. 4; compared with protein A Sepharose beads alone and pre-immune serum
Description: Various antisera were used to precipitate either [32P] labeled in vitro transcribed D10 RNA or control transcripts. Bound RNA was analyzed on a denaturing 6% polyacrylamide gel by autoradiography. Lanes 1-4 are precipitations of D10 RNA with the following antisera: 1, anti-g10 serum; 2, preimmune serum; 3, no antibody; 4, anti-g10 serum. Other transcripts were precipitated with the anti-g10 serum as follows: 5, a control RNA identical to the D10 epitope but with loop sequence 5′-CACCAUAUAA-3′(SEQ ID NO:5); 6, an unrelated RNA; 7, an RNA containing the loop sequence 5′-CUGACCCCGU-3′(SEQ ID NO:6); 8-11, supernatants from the immunoprecipitations shown in lanes 4-7, diluted to approximate radioactive equivalents.
In vitro transcribed [^32P] radiolabeled RNA was immunoprecipitated with anti-g10 serum or with an anti-U1 RNA serum (EW). Bound RNA was analyzed using a denaturing 6% acrylamide gel and autoradiography: Panel A: The D10 DNA construct (FIG. 2) was cloned into the BamHI site of PGEM-3zf (+) to produce tagged vector RNA, and transcripts with different 3′termini were generated with SP6 RNA polymerase. […] For unexplained reasons, a small amount of endogenous U1 RNA was detected in the presence of total HeLa cell extract (lanes 12-14). […]

B1: D10 RNA: single RNA species selected from the degenerate pool by anti-g10 serum (SEQ ID NO:3); U1 stem II with loop UGGUGGAGCA (nucleic acid)
chain: GGGCCACCAACGACAUUGGGCGAGGCUUAUCCUGGUGGAGCAGGAUGUGCUGACCCCGUUGAUAUAAAUAGUGCCCAUGGAUC
modifications: chemistry not given here
notes: U1 stem II with loop UGGUGGAGCA
anti-g10 serum [1]
  isolates obtained after antibody selection: 45 out of 45
anti-g10 serum [2]
  binding / recognition of RNA by anti-g10 serum: bound only to the anti-g10 serum
